Test results: paper PMC7057950

How the values were obtained:
[1] = target: ligand binding domain of the glucocorticoid receptor, Atto488-labelled (GR-LBDm-Atto 488); assay: analytical ultracentrifugation; settings: parent: est. 0.77; read off a plot
[2] = target: yHsp90 (Saccharomyces cerevisiae) (UniProt P02829); settings: remark: other sources report otherwise

Substance | response (normalized dc/dt) [1] | Kd [2]
human Hsp90β, wild type (from UniProt P08238) K607A | 0.58 | 
human Hsp90β, wild type (from UniProt P08238) K607I | 0.71 | 
human Hsp90β, wild type (from UniProt P08238) K607R | 0.82 | 

More lines, now with the values ahead:

response (normalized dc/dt) [1] | Kd [2] | Substance
0.37 |  | human Hsp90β, wild type (from UniProt P08238) K607E
 | 45 nM | yHsp90, P02829
